Assay: soluble on expression in E. coli; label from the status in PepcDB or PDB records

Soluble on expression in E. coli, soluble:
GSHMASDLLELTEDMEKEISNALGHGPQDEILSSAFKLRITRGDIQTLKNYHWLNDEVINFYMNLLVERNKKQGYPALHVFSTFFYPKLKSGGYQAVKRWTKGVNLFEQEIILVPIHRKVHWSLVVIDLRKKCLKYLDSMGQKGHRICEILLQYLQDESKTKRNSDLNLLEWTHHSMKPHEIPQQLNGSDSGMFTCKYADYISRDKPITFTQHQMPLFRKKMVWEILHQQLL, GSHMDYNKRSSVSTVPNAAPIRVGFVGLNAAKGWAIKTHYPAILQLSSQFQITALYSPKIETSIATIQRLKLSNATAFPTLESFASSSTIDMIVIAIQVASHYEVVMPLLEFSKNNPNLKYLFVEWALACSLDQAESIYKAAAERGVQTIISLQGRKSPYILRAKELISQGYIGDINSIEIAGNGGWYGYERPVKSPKYIYEIGNGVDLVTTTFGHTIDILQYMTSSYFSRINAMVFNNIPEQELIDERGNRLGQRVPKTVPDHLLFQGTLLNGNVPVSCSFKGGKPTKKFTKNLVIDIHGTKGDLKLEGDAGFAEISNLVLYYSGTRANDFPLANGQQAPLDPGYDAGKEIMKVYHLRNYNAIVGNIHRLYQSISDFHFNTKKIPELPSQFVMQGFDFEGFPTLMDALILHRLIESVYKSNMMGSTLNVSNISHYSL, GSHMGDKEKETLFKDYLNLIVVKMTEWIGNLEKAEFDVFLERSTPPHSDSDGLLFLDGTKTCFQMFTQQVEVAAGTNQAKILVGVVERFSDLLTKRQKNWISKISEEIKKQINYNHKYDIDPESITPEDECPGGLVEYLIAVSNDQMKAADYAVAISSKYGKLVSKVYEKQITNHLEGTLDGFAEVAQCSSLGLITLMFDDLRKPYQEIFSKTWYMGSQAQQIADTLDEYLLDIKPQMNSVLFVNFIDNVIGETIIKFLTALSFEHSFKNKNNKFLEAMKRDFEIFYQLFVKVLDGNESKDTLITQNFTVMEFFMDLSCEPIDSILDIWQKYLEVYWDSRIDLLVGILKCRKDVSSSERKKIVQQATEMLHEYRRNMEANGVDREPTLMRRFVLEFEKQ, GSHMKVDITIKIQRDGQEIEIDIRVSTGKELERALQELEKALARAGARNVQITISAENDEQAKELLELIARLLQKLGYKDINVRVNGTEVKIEVRV, GSHMLETEDVVRARDAHLRSILDTVPDATVVSATDGTIVSFNAAAVRQFGYAEEEVIGQNLRILMPEPYRHEHDGYLQRYMATGEKRIIGIDRVVSGQRKDGSTFPMKLAVGEMRSGGERFFTGFIRDLT, GSHMLPSCKEDEYPVGSECCPKCSPGYRVKEACGELTGTVCEPCPPGTYIAHLNGLSKCLQCQMCDPAMGLRASRNCSRTENAVCGCSPGHFCIVQDGDHCAACRAYA, GSHMNPLTQAVPKCQRWEKLQNSRCVCKMPYECGPSLDVCAQDERSKRILPLTVCKMHVLHCQGRNYTLTGRDSCTLPASAEKACGACPLWGKCDAESSKCVCREASECEEEGFSICVEVNGKEQTMSECEAGALRCRGQSISVTSIRPCAAETQ, GSHMSAMAESKVLVKGTPFNKPVIKGKLENNYDMSQDEVSLLLFLKTHGGKIPLYRIKNETGLKDPESVLKNLMDYGFALEDKERLGEKIVLTSEGEFVAQAIRVRDEELRLKEMKQKKNVNRSSAPPQ, GSHMSLDNKPIMRVASIDIGSYSVRLTIAQIKDGKLSIILERGRITSLGTKVKETGRLQEDRIEETIQVLKEYKKLIDEFKVERVKAVATEAIRRAKNAEEFLERVKREVGLVVEVITPEQEGRYAYLAVAYSLKPEGEVCVVDQGGGSTEYVFGKGYKVREVISLPIGIVNLTETFFKQDPPTEEEVKRFFEFLEKELSKVKKPVDTIVGLGGTITTLAALEYNVYPYDPQKVHGKVLTYGQIKKWFDTFKEIPSEERSKRFRQVEDRRAKVILAGIGIFLKTLEIFEKDCLIVSDWGLREGVLVSEVLKENHS, GSHMSQGSGEGEGVQLTAAQELMIQQLVAAQLQCNKRSFSDQPKVTPWPLGADPQSRDARQQRFAHFTELAIISVQEIVDFAKQVPGFLQLGREDQIALLKASTIEIMLLETARRYNHETECITFLKDFTYSKDDFHRAGLQVEFINPIFEFSRAMRRLGLDDAEYALLIAINIFSADRPNVQEPGRVEALQQPYVEALLSYTRIKRPQDQLRFPRMLMKLVSLRTLSSVHSEQVFALRLQDKKLPPLLSEIWDVHE

— the DeepSol protein solubility set
